Patent US20250262210A1 (TRUSTEES OF COLUMBIA UNIVERSITY IN THE CITY OF NEW YORK, published 2025)

Experiments:
Test in all cases: IP/MS, LZTR1 wild type-FLAG, U87
[1] = biological target: T1, GTF3C2 (human, UniProt Q8WUA4 1-911, limits assumed)
T1 sequence (looked up): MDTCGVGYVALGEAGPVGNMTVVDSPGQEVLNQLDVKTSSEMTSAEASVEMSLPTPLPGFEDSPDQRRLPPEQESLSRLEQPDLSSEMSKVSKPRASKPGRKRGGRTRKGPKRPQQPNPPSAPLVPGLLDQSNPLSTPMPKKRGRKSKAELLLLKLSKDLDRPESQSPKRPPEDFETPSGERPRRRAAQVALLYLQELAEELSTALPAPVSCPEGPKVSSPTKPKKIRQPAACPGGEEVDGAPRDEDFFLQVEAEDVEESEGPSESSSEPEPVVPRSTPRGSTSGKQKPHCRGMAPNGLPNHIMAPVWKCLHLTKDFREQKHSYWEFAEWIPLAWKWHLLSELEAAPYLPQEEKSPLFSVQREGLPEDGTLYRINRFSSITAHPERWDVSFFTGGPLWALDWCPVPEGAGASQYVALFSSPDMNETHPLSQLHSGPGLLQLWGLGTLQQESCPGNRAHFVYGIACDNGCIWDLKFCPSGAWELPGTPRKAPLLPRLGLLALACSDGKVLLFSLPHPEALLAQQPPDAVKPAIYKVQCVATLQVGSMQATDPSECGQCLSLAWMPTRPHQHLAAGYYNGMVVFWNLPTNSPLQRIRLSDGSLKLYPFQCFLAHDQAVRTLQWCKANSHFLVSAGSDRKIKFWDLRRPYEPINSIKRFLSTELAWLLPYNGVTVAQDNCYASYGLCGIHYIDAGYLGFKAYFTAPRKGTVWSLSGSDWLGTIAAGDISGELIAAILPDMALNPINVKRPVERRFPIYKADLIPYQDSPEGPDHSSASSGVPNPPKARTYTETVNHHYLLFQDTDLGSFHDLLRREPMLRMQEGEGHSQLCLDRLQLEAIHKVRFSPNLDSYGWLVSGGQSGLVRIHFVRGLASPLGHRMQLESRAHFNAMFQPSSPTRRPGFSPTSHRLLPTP
How it was run: (§1)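 Gel slices were reduced with 5 mM DTT, alkylated with 11 mM IAA and digested overnight at 37° C. with trypsin. Peptides were analysed on an Orbitrap Fusion Tribrid by LC-MS/MS.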

[2] = biological target: MAP4K4 (human, UniProt O95819 2-1239, limits assumed)
How it was run: as §1

[3] = biological target: HTT (human, UniProt P42858 1-3142)
How it was run: as §1

[4] = biological target: T2, MOCOS (human, UniProt Q96EN8 1-888)
T2 sequence (looked up): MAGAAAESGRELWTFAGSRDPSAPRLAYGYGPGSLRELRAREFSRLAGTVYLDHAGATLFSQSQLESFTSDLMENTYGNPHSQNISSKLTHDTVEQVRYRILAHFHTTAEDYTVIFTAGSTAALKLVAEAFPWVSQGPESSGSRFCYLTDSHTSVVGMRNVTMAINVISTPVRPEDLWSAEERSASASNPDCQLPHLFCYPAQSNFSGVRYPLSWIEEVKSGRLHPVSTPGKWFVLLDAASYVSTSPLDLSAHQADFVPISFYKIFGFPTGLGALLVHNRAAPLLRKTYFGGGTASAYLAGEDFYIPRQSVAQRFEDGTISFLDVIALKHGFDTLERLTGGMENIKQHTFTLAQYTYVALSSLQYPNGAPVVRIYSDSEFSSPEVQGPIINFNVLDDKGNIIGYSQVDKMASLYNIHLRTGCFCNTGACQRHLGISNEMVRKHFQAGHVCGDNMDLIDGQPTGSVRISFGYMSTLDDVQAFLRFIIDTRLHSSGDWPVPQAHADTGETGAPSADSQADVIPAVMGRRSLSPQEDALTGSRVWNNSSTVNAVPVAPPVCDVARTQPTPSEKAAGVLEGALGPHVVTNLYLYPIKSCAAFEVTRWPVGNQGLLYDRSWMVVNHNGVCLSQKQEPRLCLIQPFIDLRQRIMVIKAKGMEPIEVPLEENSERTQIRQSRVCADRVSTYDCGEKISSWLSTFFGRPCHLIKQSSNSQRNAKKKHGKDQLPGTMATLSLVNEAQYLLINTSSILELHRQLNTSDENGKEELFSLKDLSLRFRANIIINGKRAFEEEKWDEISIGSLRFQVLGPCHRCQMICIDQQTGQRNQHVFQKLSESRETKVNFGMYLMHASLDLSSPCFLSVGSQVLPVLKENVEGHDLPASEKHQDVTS
How it was run: as §1

HTT, sequence (P42858 whole entry): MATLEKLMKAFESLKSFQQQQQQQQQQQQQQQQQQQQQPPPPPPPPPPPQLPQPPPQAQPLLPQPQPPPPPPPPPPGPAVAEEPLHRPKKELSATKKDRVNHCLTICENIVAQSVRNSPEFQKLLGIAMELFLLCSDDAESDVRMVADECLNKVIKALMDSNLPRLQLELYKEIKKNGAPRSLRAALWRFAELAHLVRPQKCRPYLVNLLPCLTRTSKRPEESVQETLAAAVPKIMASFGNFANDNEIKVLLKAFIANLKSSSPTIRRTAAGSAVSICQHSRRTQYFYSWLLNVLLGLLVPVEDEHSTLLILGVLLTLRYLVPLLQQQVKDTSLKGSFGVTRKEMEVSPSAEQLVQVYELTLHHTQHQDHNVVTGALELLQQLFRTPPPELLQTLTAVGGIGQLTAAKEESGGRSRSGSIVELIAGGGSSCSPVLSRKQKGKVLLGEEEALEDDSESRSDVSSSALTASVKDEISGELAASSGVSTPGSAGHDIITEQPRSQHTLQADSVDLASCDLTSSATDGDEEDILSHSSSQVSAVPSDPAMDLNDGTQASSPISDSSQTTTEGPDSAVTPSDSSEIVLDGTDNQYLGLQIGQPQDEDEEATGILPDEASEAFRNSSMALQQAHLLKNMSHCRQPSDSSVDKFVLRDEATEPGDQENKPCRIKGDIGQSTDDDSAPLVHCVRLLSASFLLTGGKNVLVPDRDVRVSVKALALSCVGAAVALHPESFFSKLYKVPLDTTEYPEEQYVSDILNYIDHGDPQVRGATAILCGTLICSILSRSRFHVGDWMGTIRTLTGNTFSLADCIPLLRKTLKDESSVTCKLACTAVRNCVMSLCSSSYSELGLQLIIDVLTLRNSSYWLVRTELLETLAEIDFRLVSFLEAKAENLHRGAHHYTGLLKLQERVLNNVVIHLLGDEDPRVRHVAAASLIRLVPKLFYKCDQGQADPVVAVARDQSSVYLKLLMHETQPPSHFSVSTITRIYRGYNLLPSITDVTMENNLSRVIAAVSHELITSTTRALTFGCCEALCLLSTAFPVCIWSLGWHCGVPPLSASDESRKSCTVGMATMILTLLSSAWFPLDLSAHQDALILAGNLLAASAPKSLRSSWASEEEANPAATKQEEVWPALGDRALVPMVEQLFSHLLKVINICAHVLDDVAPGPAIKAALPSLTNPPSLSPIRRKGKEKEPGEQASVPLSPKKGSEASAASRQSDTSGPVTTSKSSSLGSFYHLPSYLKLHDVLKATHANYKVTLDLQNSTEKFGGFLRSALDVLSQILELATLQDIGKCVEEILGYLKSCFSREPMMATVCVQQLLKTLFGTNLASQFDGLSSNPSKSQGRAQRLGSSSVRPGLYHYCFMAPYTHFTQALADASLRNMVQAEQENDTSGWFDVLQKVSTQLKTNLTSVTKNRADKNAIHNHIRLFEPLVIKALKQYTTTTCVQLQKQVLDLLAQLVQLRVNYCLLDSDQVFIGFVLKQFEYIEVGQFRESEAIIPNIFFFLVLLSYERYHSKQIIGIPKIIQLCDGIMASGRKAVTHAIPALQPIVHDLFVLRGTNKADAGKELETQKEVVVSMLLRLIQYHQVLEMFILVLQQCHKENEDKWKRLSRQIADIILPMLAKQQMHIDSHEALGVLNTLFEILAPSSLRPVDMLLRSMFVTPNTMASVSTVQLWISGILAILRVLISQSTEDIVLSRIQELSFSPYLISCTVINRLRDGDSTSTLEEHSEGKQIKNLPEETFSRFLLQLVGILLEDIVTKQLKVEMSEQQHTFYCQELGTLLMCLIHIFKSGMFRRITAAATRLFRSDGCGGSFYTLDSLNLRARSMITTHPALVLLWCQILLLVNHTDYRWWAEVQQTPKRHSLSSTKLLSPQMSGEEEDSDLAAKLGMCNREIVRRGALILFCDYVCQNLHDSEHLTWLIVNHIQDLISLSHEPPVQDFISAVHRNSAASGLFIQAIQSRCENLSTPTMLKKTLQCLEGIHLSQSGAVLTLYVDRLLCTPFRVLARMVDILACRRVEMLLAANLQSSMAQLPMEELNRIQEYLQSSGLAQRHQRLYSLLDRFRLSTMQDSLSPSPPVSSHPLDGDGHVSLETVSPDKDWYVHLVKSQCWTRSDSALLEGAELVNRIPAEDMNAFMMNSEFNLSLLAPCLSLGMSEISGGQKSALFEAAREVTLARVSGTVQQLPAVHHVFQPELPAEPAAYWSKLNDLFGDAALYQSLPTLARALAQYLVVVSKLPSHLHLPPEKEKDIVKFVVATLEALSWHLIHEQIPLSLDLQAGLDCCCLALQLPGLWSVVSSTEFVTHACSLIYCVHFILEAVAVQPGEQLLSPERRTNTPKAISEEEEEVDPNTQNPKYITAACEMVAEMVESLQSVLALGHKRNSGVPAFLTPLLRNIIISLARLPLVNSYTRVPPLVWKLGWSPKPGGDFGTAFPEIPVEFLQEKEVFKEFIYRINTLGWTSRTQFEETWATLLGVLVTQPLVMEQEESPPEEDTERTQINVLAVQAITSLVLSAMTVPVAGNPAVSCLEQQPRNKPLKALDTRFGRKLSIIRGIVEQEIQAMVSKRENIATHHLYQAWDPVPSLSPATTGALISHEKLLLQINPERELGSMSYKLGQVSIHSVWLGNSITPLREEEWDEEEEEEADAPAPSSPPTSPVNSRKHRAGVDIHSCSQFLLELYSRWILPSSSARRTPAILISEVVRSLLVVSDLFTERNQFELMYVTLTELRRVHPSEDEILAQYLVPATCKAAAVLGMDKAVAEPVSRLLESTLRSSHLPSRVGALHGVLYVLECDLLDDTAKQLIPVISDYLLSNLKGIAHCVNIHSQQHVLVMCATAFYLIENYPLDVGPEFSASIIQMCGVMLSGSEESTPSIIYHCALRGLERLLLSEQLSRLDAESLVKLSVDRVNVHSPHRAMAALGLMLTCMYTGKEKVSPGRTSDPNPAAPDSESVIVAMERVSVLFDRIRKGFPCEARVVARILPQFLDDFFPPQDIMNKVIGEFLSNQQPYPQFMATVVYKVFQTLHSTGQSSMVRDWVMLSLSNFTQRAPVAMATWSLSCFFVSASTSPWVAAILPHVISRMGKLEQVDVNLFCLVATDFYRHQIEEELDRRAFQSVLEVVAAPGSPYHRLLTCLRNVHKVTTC
MAP4K4, sequence (O95819 2-1239 limits assumed): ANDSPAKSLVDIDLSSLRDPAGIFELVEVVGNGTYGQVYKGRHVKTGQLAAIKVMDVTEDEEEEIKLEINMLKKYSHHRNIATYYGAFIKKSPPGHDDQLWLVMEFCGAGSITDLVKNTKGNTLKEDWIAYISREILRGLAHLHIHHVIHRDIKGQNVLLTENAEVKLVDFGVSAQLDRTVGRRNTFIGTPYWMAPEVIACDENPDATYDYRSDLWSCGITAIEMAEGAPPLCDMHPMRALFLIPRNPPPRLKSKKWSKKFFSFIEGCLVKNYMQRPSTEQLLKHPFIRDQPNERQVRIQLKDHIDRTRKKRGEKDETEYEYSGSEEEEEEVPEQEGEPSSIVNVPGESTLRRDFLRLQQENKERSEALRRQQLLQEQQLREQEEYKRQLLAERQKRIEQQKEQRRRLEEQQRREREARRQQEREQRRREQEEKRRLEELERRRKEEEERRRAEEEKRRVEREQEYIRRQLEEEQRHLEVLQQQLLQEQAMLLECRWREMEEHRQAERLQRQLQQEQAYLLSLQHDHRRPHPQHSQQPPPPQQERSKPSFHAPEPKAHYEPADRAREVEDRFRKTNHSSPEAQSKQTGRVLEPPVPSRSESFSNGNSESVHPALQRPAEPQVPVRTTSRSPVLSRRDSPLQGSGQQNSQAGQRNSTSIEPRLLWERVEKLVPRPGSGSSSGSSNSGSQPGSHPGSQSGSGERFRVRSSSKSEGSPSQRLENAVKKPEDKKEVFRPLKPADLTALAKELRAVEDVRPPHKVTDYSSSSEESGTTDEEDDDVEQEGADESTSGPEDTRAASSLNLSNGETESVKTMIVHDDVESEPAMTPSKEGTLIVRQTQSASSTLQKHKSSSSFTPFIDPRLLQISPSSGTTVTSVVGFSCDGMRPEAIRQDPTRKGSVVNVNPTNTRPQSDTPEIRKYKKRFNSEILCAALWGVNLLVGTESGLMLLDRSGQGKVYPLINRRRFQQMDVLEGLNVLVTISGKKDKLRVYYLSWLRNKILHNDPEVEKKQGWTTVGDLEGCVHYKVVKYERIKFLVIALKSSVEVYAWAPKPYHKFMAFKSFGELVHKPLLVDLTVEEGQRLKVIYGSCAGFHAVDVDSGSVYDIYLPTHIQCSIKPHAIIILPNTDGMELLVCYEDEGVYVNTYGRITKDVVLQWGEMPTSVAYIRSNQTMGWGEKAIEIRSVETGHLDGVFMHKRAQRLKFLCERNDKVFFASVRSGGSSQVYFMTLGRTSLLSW

binding result [1]: binds
binding result [2]: binds
binding result [3]: binds
binding result [4]: binds
B1: LZTR1-FLAG (other, human, UniProt Q8N653 1-840, looked up)
chain: MAGPGSTGGQIGAAALAGGARSKVAPSVDFDHSCSDSVEYLTLNFGPFETVHRWRRLPPCDEFVGARRSKHTVVAYKDAIYVFGGDNGKTMLNDLLRFDVKDCSWCRAFTTGTPPAPRYHHSAVVYGSSMFVFGGYTGDIYSNSNLKNKNDLFEYKFATGQWTEWKIEGRLPVARSAHGATVYSDKLWIFAGYDGNARLNDMWTIGLQDRELTCWEEVAQSGEIPPSCCNFPVAVCRDKMFVFSGQSGAKITNNLFQFEFKDKTWTRIPTEHLLRGSPPPPQRRYGHTMVAFDRHLYVFGGAADNTLPNELHCYDVDFQTWEVVQPSSDSEVGGAEVPERACASEEVPTLTYEERVGFKKSRDVFGLDFGTTSAKQPTQPASELPSGRLFHAAAVISDAMYIFGGTVDNNIRSGEMYRFQFSCYPKCTLHEDYGRLWESRQFCDVEFVLGEKEECVQGHVAIVTARSRWLRRKITQARERLAQKLEQEAAPVPREAPGVAAGGARPPLLHVAIREAEARPFEVLMQFLYTDKIKYPRKGHVEDVLLIMDVYKLALSFQLCRLEQLCRQYIEASVDLQNVLVVCESAARLQLSQLKEHCLNFVVKESHFNQVIMMKEFERLSSPLIVEIVRRKQQPPPRTPLDQPVDIGTSLIQDMKAYLEGAGAEFCDITLLLDGHPRPAHKAILAARSSYFEAMFRSFMPEDGQVNISIGEMVPSRQAFESMLRYIYYGEVNMPPEDSLYLFAAPYYYGFYNNRLQAYCKQNLEMNVTVQNVLQILEAADKTQALDMKRHCLHIIVHQFTKVSKLPTLRSLSQQLLLDIIDSLASHISDKQCAELGADI
notes: Expressed in HEK 293T, HeLa or U87 cells; used as cell lysate; also called LZTR1 wild type-FLAG; LZTR1 WT; not shown: FLAG tag at the C-terminus
